Measurements taken from patent publication US11672873 (NANTBIO, dated 2023).

T1: B7-H4 expressed on the human breast cancer cell line SkBr3 and on the B7-H4 expressing cell line MX-1 (human (SkBr3 is called a human breast …, UniProt Q7Z7D3 25-282))
T1 construct: whole, on cells; also called VTCN1; B7x
T1 sequence (looked up): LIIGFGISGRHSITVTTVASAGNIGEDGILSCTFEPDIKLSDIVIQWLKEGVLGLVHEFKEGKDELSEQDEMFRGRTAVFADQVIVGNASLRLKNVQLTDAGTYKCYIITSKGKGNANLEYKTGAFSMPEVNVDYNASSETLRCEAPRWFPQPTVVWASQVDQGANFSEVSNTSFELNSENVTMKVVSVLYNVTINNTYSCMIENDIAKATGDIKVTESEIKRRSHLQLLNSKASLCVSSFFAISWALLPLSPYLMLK


Target: T1, B7-H4 expressed on the human breast …
Test: staining of SkBr3 cells, antibody at 10 ug/ml (FIG. 1)

Binder | binding result
anti-B7-H4 antibody 817 (antibody, V domains shown) VH: EVQLVESGGGLVQPGGSLRLSCAASGFTFSSYAMHWVRQAPGKGLEWVSAISGSGGSTRYADSVKGRFTISRDNSKNTLYLQMNSLRAEDTAVYYCARGRWSKWGFDVWGQGTLVTVSS VL: not shown | binds
anti-B7-H4 antibody 801 (antibody, V domains shown) VH: EVQLVESGGGLVQPGGSLRLSCAASGFTFNSYAMHWVRQAPGKGLEWVSAISGNGGSTRYADSVKGRFTISRDNSKNTLYLQMNSLRAEDTAVYYCARDRFRKVHGFDVWGQGTLVTVSS VL: DIQMTQSPSSLSASVGDRVTITCQASQDISNYLNWYQQKPGKAPKLLIYDASNLETGVPSRFSGSGSGTDFTFTISSLQPEDIATYYCQQDATFPLTFGQGTKVEIK | binds
